Laboratory results: paper PMC9425028

B1: wild-type recombinant mouse MASP-3 fused with PA-tag (WT rmMASP-3-PA) [mouse] / mouse ficolin-A [mouse (endogenous in serum of C57BL/6J mice)] (parent)
chain 1: HTVELNEMFGQIQSPGYPDSYPSDSEVTWNITVPEGFRIKLYFMHFNLESSYLCEYDYVKVETEDQVLATFCGRETTDTEQTPGQEVVLSPGTFMSVTFRSDFSNEERFTGFDAHYMAVDVDECKEREDEELSCDHYCHNYIGGYYCSCRFGYILHTDNRTCRVECSGNLFTQRTGTITSPDYPNPYPKSSECSYTIDLEEGFMVSLQFEDIFDIEDHPEVPCPYDYIKIKAGSKVWGPFCGEKSPEPISTQTHSVQILFRSDNSGENRGWRLSYRAAGNECPKLQPPVYGKIEPSQAVYSFKDQVLVSCDTGYKVLKDNEVMDTFQIECLKDGAWSNKIPTCKIVDCGAPAGLKHGLVTFSTRNNLTTYKSEIRYSCQQPYYKMLHNTTGVYTCSAHGTWTNEVLKRSLPTCLPVCGQPSRALPNLVKRIIGGRNAELGLFPWQALIVVEDTSRVPNDKWFGSGALLSESWILTAAHVLRSQRRDNTVIPVSKEHVTVYLGLHDVRDKSGAVNSSAARVILHPDFNIQNYNHDIALVQLQKPVPLGAHVMPICLPRPEPEGPAPHMLGLVAGWGISNPNVTVDEIILSGTRTLSDVLQYVKLPVVSHAECKASYESRSGNYSVTENMFCAGYYEGGKDTCLGDSGGAFVIFDEMSQHWVAQGLVSWGGPEECGSKQVYGVYTKVSNYVDWLWEEMNSPRAVRDLQVER
chain 2: SQALGQERGACPDVKVVGLGAQDKVVVIQSCPGFPGPPGPKGEPGSPAGRGERGFQGSPGKMGPAGSKGEPGTMGPPGVKGEKGDTGAAPSLGEKELGDTLCQRGPRSCKDLLTRGIFLTGWYTIHLPDCRPLTVLCDMDVDGGGWTVFQRRVDGSIDFFRDWDSYKRGFGNLGTEFWLGNDYLHLLTANGNQELRVDLQDFQGKGSYAKYSSFQVSEEQEKYKLTLGQFLEGTAGDSLTKHNNMSFTTHDQDNDANSMNCAALFHGAWWYHNCHQSNLNGRYLSGSHESYADGINWGTGQGHHYSYKVAEMKIRAS
B2: wild-type recombinant mouse MASP-3 fused with PA-tag (WT rmMASP-3-PA) [mouse] / mouse collectin kidney 1 (CL-K1) [mouse (endogenous in serum of C57BL/6J mice)] (parent)
chain 1: B1 chain 1
chain 2: QQTTEDACSVQILVPGLKGDAGEKGDKGAPGRPGRVGPTGEKGDMGDKGQKGTVGRHGKIGPIGAKGEKGDSGDIGPPGPSGEPGIPCECSQLRKAIGEMDNQVTQLTTELKFIKNAVAGLRETESKIYLLVKEEKRYADAQLSCQARGGTLSMPKDEAANGLMASYLAQAGLARVFIGINDLEKEGAFVYSDRSPMQTFNKWRSGEPNNAYDEEDCVEMVASGGWNDVACHITMYFMCEFDKENL

Variants of: B1
Assay: immunoprecipitation with anti-PA tag antibody beads from mouse serum, Western blot band intensity
Conditions: with mouse ficolin-A [mouse (endogenous in serum of C57BL/6J mice)]; TBS containing 7 mM MgCl2 and 5 mM CaCl2 (TBS/Mg/Ca); parent: 1; read off a plot

In order of rising ratio to parent:
1. chain 1 H218A  0.04
2. chain 1 D102A  0.04
3. chain 1 Y225A  0.06
4. chain 1 E49A  0.09

Variants of: B2
Assay: as above
Conditions: with mouse collectin kidney 1 (CL-K1) [mouse (endogenous in serum of C57BL/6J mice)]; TBS containing 7 mM MgCl2 and 5 mM CaCl2 (TBS/Mg/Ca); parent: 1; read off a plot

In order of rising ratio to parent:
1. chain 1 E49A  0.02
2. chain 1 D102A  0.03
3. chain 1 H218A  0.04
4. chain 1 Y225A  0.07
